Experimental data reported in patent US20160304622A1 (GENEFRONTIER, published 2016).

Legend:
Assay in all cases: immunoblotting after reducing SDS-PAGE
[1] = target: T1, recombinant human ADAMTS1 (R&D Systems) (human, UniProt Q9UHI8 253-967, limits assumed)
T1 sequence (looked up): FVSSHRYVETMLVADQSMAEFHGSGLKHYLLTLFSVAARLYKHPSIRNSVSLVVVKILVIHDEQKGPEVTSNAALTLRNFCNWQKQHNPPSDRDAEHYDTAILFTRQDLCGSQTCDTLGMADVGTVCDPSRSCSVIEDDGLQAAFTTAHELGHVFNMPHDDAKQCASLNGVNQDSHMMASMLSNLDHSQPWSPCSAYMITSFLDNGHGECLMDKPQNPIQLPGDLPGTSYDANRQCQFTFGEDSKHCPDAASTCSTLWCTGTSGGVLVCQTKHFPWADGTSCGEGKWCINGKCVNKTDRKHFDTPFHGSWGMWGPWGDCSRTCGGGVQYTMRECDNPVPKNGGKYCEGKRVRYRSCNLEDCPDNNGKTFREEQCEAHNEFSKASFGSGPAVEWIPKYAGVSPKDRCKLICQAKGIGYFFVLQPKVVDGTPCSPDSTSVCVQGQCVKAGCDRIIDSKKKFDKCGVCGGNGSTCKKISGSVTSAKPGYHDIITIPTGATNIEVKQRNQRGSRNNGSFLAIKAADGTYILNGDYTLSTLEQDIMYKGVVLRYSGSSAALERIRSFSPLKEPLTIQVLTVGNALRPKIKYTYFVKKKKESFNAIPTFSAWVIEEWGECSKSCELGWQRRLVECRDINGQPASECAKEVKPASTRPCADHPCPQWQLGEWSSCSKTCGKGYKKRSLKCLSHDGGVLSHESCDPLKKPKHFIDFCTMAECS
Excerpt: (§1) Recombinant proteins of human ADAMTS1 (R&D Systems), ADAMTS4, ADAMTS5 (R&D Systems), ADAMTS15 (R&D Systems), ADAM10 (R&D Systems), ADAM12 (Mochida Pharmaceutical Co., Ltd., Tokyo, Japan), ADAM17 (R&D Systems) and MMP-13 (Millipore, Billerica, Mass.) and purified human MMP-1, MMP-2, MMP-3 and MMP-9 (Daiichi Fine Chemical, Co., Ltd., Toyama, Japan) were subjected to sodium dodecyl sulfate-polyacrylamide gel electrophoresis (SDS-PAGE) under reducing conditions, and the samples resolved on the gels were transferred onto polyvinylidene difluoride (PVDF) membranes. […] After washing with phosphate buffered saline containing 0.1% Tween 20, the membranes were reacted with horseradish peroxidase-conjugated secondary antibody against human IgG (Invitrogen, Carlsbad, Calif.) for 1 h at room temperature. A chemiluminescence reagent (Pierce ECL western blotting substrate; Thermo Fisher Scientific, Waltham, Mass.) was used to make the labeled protein bands visible. All the samples were also examined on silver-stained gels, which were prepared by silver stain kit (Cosmo Bio Co., Ltd, […].).

[2] = target: T2, recombinant human ADAMTS15 (R&D Systems) (human, UniProt Q8TE58 213-950, limits assumed)
T2 sequence (looked up): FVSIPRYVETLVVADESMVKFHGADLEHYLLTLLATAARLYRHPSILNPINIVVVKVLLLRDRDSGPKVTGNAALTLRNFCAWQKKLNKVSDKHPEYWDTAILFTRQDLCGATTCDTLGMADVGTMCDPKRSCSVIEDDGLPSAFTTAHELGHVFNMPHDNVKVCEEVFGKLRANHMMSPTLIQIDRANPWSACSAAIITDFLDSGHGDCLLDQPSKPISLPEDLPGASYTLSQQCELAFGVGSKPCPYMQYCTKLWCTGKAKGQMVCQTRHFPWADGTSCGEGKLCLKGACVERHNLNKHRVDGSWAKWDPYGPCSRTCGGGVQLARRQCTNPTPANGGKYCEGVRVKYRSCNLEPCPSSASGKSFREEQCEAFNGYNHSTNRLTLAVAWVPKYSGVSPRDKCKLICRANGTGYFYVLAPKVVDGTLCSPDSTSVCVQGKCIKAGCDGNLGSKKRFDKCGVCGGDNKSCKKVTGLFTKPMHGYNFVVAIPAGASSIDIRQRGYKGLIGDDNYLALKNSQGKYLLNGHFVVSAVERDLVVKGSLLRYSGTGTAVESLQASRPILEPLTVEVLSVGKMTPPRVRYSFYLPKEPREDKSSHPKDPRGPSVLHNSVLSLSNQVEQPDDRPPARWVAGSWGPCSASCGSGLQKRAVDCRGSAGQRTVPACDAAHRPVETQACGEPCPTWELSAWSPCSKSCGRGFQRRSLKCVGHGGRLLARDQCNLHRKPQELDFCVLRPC
Excerpt: as §1

[3] = target: T3, purified human MMP-2 (Daiichi Fine Chemical) (human, UniProt P08253 30-660, limits assumed)
T3 sequence (looked up): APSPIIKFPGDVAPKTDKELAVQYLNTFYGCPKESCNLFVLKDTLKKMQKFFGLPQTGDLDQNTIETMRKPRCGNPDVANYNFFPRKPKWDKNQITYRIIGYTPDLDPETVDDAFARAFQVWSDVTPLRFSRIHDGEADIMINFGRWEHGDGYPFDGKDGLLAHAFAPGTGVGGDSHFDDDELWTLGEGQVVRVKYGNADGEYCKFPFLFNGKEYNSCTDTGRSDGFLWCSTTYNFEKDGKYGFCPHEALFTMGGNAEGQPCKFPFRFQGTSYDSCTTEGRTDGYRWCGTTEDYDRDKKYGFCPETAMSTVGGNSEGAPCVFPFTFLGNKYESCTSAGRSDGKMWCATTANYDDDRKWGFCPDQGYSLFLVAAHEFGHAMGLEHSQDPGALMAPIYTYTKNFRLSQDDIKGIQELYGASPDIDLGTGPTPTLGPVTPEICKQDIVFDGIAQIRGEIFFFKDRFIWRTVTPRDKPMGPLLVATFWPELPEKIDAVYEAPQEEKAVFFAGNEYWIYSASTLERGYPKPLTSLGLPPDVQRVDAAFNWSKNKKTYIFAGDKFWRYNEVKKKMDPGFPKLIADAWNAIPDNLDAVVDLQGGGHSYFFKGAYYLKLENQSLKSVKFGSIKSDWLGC
Excerpt: as §1

[4] = target: purified human MMP-3 (Daiichi Fine Chemical) (human, UniProt P08254 18-477, limits assumed)
purified human MMP-3 (Daiichi Fine Chemical), sequence (P08254 18-477 limits assumed): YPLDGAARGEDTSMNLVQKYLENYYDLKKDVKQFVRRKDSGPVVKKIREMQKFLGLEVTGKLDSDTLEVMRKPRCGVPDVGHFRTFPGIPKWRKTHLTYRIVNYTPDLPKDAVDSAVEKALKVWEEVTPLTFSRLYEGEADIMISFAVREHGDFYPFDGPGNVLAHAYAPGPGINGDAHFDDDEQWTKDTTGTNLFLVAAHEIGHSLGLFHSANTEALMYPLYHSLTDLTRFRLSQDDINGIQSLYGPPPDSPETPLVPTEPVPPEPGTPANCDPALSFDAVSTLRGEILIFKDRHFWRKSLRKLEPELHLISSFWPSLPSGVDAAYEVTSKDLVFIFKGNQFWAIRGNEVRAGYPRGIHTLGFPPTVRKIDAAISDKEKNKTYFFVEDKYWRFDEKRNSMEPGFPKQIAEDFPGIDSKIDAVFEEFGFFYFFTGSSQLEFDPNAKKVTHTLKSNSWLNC
Excerpt: as §1

[5] = target: purified human MMP-9 (Daiichi Fine Chemical) (human, UniProt P14780 20-707, limits assumed)
purified human MMP-9 (Daiichi Fine Chemical), sequence (P14780 20-707 limits assumed): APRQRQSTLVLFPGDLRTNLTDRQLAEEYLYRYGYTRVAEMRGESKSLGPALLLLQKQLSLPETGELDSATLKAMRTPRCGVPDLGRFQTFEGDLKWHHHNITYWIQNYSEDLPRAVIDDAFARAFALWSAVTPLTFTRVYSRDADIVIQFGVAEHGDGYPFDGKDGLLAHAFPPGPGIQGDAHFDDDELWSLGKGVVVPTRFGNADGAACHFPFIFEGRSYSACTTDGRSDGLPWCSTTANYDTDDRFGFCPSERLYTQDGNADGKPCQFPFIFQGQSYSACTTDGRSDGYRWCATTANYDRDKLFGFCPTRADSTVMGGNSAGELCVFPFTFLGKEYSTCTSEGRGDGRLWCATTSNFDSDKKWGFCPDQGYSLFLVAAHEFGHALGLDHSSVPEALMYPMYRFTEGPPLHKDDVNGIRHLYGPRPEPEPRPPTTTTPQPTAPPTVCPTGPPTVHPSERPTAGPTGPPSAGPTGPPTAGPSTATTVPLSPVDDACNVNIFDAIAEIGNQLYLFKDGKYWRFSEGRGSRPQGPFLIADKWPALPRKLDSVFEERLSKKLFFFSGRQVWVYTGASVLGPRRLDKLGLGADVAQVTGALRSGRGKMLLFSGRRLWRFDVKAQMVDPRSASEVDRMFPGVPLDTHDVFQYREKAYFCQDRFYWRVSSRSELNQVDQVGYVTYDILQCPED
Excerpt: as §1

[6] = target: recombinant human MMP-13 (Millipore) (human, UniProt P45452 20-471, limits assumed)
Excerpt: as §1

Measured: binding result

B1: Fab of clone 237-53 (Fab, V domains shown)
VH: QVQLVQSGAEVKKPGSSVKVSCKASGGTFSSFAISWVRQAPGQGLEWMGGIFPIFGQANYAQKFQGRVTITADESTSTAYMELSSLRSEDTAVYYCARFSDWWEWQMDYWGQGTLVTVSS
VL: DIVMTQSPDSLAVSLGERATINCRSSQSILYSSNNNYLAWYQQKPGQPPKLLIHTASARESGVPDRFSGSGSGTDFTLTISSLQAEDVAVYYCQQYYSVSITFGQGTKVEIKR
no binding (tested: 5 µg/ml): [1] | [2] | [3] | [4] | [5] | [6]
